Here are results for 3 substances from patent publication US9505823.

This experiment concerns the target IGF-I receptor (on L6 cells) (UniProt P24062). The experiment in a line: cell-based or functional assay.
Sequence of UniProt P24062 (P24062 31-1370 limits assumed): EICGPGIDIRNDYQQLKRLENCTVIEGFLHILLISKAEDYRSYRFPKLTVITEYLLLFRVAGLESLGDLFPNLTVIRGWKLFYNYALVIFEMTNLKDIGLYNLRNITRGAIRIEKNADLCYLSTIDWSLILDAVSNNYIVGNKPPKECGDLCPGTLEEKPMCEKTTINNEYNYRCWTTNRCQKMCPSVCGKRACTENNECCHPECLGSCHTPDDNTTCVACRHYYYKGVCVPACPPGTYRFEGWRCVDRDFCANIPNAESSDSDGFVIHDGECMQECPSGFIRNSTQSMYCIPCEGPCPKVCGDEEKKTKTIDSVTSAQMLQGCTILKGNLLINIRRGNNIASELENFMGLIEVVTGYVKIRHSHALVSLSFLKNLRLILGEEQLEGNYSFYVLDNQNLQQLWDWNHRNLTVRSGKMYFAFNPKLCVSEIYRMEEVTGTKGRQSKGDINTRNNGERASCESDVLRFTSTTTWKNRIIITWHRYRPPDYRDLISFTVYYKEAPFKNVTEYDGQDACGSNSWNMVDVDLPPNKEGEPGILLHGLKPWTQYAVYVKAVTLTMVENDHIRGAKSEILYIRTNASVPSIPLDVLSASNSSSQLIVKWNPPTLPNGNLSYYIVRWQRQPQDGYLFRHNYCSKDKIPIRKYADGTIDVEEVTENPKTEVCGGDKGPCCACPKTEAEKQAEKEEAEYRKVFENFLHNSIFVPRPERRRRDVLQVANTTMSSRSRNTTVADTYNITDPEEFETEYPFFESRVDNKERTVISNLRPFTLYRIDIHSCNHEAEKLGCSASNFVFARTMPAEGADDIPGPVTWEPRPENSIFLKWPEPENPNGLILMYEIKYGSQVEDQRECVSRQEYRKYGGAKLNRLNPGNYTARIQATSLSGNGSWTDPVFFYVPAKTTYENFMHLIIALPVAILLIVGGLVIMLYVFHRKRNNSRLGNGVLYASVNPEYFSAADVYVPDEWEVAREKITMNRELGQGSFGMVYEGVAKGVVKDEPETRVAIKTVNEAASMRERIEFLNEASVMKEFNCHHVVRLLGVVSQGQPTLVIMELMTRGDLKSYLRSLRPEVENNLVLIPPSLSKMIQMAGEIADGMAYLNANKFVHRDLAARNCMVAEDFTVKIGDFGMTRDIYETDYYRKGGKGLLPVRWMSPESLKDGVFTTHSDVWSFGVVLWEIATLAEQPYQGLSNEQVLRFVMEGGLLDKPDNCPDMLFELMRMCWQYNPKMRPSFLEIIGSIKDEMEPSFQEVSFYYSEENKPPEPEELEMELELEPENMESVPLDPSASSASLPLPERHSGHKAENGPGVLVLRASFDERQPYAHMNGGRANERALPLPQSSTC

Glargine (Lantus, Aventis) (ligand) returned an EC50 of L6 cell proliferation (CellTiter-Glo, 2 days) of 0.9 nM; an EC50 of mitogenic activity, L6 cells of 4.73 nM; a Percent mitogenic activity, L6 cells (insulin = 100) of 77 percent.
In turn, “IGF-I (from UniProt P05019 49-118) (ligand)” showed an EC50 of L6 cell proliferation (CellTiter-Glo, 2 days) of 0.04 nM; an EC50 of mitogenic activity, L6 cells of 0.07 nM; a Percent mitogenic activity, L6 cells (insulin = 100) of 5230 percent.
On to Levemir (ligand), for which the EC50 of mitogenic activity, L6 cells stood at 14.8 nM and the Percent mitogenic activity, L6 cells (insulin = 100) came out at 24.7 percent.
